Laboratory results taken from patent publication US20220281976A1 (Alector, published 2022).

T1: mouse CD33 Fc fusion protein (mouse, UniProt Q63994 18-240, limits assumed)
T1 construct: also called mCD33-Fc
T1 sequence: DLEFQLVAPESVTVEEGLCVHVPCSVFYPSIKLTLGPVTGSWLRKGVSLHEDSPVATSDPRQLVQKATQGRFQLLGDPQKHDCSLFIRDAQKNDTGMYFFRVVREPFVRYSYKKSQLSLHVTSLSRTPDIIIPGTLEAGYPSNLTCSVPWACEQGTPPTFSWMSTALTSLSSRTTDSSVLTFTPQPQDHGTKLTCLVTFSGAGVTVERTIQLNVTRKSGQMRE


Tests used:
[1] = biological target: T2, human monomeric His tagged CD33 protein (human, UniProt P20138 18-259); test: ForteBio BLI or MSD-SET, IgG, monomeric antigen;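 further: BLI: antibodies captured on AHQ sensors, 100 nM antigen association 5 min, dissociation 5 min, 1:1 fit. MSD-SET: antigen fixed at 50 pM, antibody titrated, quadratic fit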
T2 construct: also called hCD33-His

[2] = biological target: T3, human CD33 (human, UniProt P20138 18-364); test: flow cytometry, human primary dendritic cells;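 further: binding of anti-CD33 antibodies (10 ug/ml, 1 h on ice) to human primary dendritic cells, detected with a PE-labelled secondary antibody, reported as flow cytometry MFI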
T3 construct: CD33 on human primary dendritic cells, macrophages, monocytes and T cells and on CHO cells expressing recombinant human CD33; also called Siglec-3; hCD33

[3] = biological target: T4, human CD33 Fc fusion protein (human, UniProt P20138 18-259); test: ForteBio BLI or MSD-SET, IgG, avid;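 further: Anti-CD33 IgG affinity by BLI, IgG captured on AHQ sensors with antigen in solution and a one-to-one kinetic fit, or by MSD solution equilibrium titration with quadratic fit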
T4 construct: also called hCD33-Fc; human CD33/Fc chimera (R&D Systems)
Method: The binding affinity of each anti-CD33 antibody was determined by measuring their KD by ForteBio or MSD-SET. […] Briefly, ForteBio affinity measurements were performed by loading IgGs on-line onto AHQ sensors. Sensors were equilibrated off-line in assay buffer for 30 min and then monitored on-line for 60 seconds for baseline establishment. Sensors with loaded IgGs were exposed to 100 nM antigen for 5 minutes, then transferred to assay buffer for 5 min for off-rate measurement. Kinetics were analyzed using the 1:1 binding model.
Solution equilibrium titrations (SET) were performed in PBS+0.1% IgG-Free BSA (PBSF) with antigen held constant at 50 pM and incubated with 3-to 5-fold serial dilutions of antibody starting at 10 nM. Antibodies (20 nM in PBS) were coated onto standard bind MSD-ECL plates overnight at 4° C. or at room temperature for 30 min. Plates were then blocked for 30 min with shaking at 700 rpm, followed by three washes with wash buffer (PBSF+0.05% Tween 20). SET samples were applied and incubated on the plates for 150s with shaking at 700 rpm followed by one wash. Antigen captured on a plate was detected with 250 ng/mL sulfotag-labeled streptavidin in PBSF by incubation on the plate for 3 min. The plates were washed three times with wash buffer and then read on the MSD Sector Imager 2400 instrument using 1× Read Buffer T with surfactant. The percent free antigen was plotted as a function of titrated antibody in Prism and fit to a quadratic equation to extract the KD. To improve throughput, liquid handling robots were used throughout MSD-SET experiments, including SET sample preparation.

[4] = biological target: T1, mouse CD33 Fc fusion protein; test: ForteBio BLI or MSD-SET
[5] = biological target: T3, human CD33; test: flow cytometry, human primary monocytes; design: reference not given here;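 further: binding of anti-CD33 antibodies at 10 ug/ml to human primary monocytes, 1 h on ice, detected by PE-labelled secondary antibody, flow cytometry readout as mean fluorescence intensity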
[6] = biological target: T4, human CD33 Fc fusion protein; test: RBC adhesion to plate-bound CD33-Fc; antibody 0.5 ug/ml;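 further: Plate-coated CD33-Fc preincubated 1 h with antibody, then red blood cells added for 1 h at room temperature, adherent cells lysed and quantified via peroxidase activity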
[7] = biological target: T4, human CD33 Fc fusion protein; test: RBC adhesion to plate-bound CD33-Fc; antibody 1.0 ug/ml;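 further: red blood cells adhering to plate-coated CD33-Fc after 1 h antibody pretreatment, then 1 h at room temperature, bound cells read as peroxidase activity after lysis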
Method: Briefly, 5 ug/ml CD33-Fc was coated overnight at RT in 96 well Immunolon plates, then washed with PBS, blocked for one hour with binding buffer (PBS containing %0.25 BSA 1 mM CaCl₂). CD33 antibodies (0.5 ug/ml or 1.0 ug/ml) or Fabs (25 ug/ml) were bound for one hour at RT with gentle rocking. After removal of unbound antibody, red blood cells were added to each well at a concentration of 3.0×10⁶ cells per ml and incubated at RT for one hour. Unbound RBCs were then carefully washed off 3× with PBS, and water was added to each well for hypotonic lysis of bound RBCs. The plate was transferred to −80° C. for 10 minutes, followed by 37° C. for 15 minutes. Bound RBCs were detected by peroxidase activity, followed by 2N sulfuric acid to stop the reaction.

[8] = biological target: T3, human CD33; test: cell-based or functional assay
[9] = biological target: T3, human CD33; test: flow cytometry, human primary T cells;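 further: binding of anti-CD33 antibodies at 10 ug/ml to human primary T cells, 1 h on ice, detected with PE-labelled secondary antibody, read as flow cytometry MFI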
Method: (§1) Initial characterization of CD33 antibodies involved determining their ability to bind CD33 expressed on a CHO cell line, on human primary monocytes, human primary macrophages, human primary dendritic cells, and on human primary T cells. Cells were harvested, plated at 10⁶/ml in a 96 well plate, and incubated in 100 ul PBS containing 2% FBS, 2 mM EDTA and 10 ug/ml Mab and Fc blocking reagent for 1 hour in ice. Cells were washed twice and incubated in 100 ul PBS containing 2% FBS, 2 mM EDTA and 5 ug/ml PE-conjugated secondary antibody for 30 minutes on ice. Cells were washed twice in cold PBS and analyze by flow cytometry on a BD FACS Canto. Data analysis and calculation of MFI values was performed with FlowJo (TreeStar) software version 10.0.7.

[10] = biological target: T3, human CD33; test: flow cytometry, human primary macrophages;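 further: binding of CD33 antibodies at 10 µg/ml to human primary macrophages, 1 h on ice, detected with PE-labelled secondary antibody by flow cytometry, reported as MFI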
Method: as §1

T4 sequence (P20138 18-259 limits assumed): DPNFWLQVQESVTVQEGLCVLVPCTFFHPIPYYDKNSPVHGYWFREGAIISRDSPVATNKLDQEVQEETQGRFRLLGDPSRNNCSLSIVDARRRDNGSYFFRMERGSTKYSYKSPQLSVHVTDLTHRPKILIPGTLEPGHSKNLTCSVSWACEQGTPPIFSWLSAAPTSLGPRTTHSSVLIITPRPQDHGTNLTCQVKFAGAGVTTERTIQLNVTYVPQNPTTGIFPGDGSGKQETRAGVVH
T2 sequence (P20138 18-259 limits assumed): as above
T3 sequence (P20138 18-364): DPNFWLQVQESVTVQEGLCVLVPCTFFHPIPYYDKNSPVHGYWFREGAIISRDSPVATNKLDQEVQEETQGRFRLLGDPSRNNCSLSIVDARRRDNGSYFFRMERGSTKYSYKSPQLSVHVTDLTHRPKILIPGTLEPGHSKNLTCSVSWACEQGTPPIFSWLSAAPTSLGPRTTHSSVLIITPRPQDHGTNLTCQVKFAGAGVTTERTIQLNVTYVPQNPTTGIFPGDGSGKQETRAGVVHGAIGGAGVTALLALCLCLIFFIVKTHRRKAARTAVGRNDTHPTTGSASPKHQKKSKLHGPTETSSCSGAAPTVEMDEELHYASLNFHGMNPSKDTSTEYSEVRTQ

| Kd [1] [nM] | DC MFI [2] | Kd [3] [nM] | binding result [4] | Monocyte MFI [5] | Percent RBC Binding to CD33 [6] [%] | Percent RBC Binding to CD33 [7] [%] | Percent CD33 Surface Expression, DC % CD33 [8] [%] | Percent CD33 Surface Expression, Macrophage % CD33 [8] [%] | Percent CD33 Surface Expression, Monocyte % CD33 [8] [%] | T cell MFI [9] | Macrophage MFI [10] | Binder |
| --- | --- | --- | --- | --- | --- | --- | --- | --- | --- | --- | --- | --- |
| 5.25 | 1740 | 1.28 | no binding (tested: 100 nM) | 166 | 15.6 | 10.3 | 17.9 | 49.1 | 27.6 | 267 | 904 | C-38 (antibody, V domains shown, human IgG1) VH: QLQLQESGPGLVKPSETLSLTCTVSGGSISSSSYYWGWIRQPPGKGLEWIGSIYYSGSTYYNPSLKSRVTISVDTSKNQFSLKLSSVTAADTAVYYCAREATAAADHPGMDVWGQGTTVTVSS VL: DIQMTQSPSSLSASVGDRVTITCQASQDITNYLNWYQQKPGKAPKLLIYDASNLETGVPSRFSGSRSGTDFTFTISSLQPEDIATYYCQQYHDFPTFGGGTKVEIK |
| 9.04 | 1500 | 2.06 | no binding (tested: 100 nM) | 151 | 13.8 | 8.99 | 24.5 | 42.5 | 34.9 | 192 | 908 | C-43 (antibody, V domains shown, human IgG1) VH: QVQLVQSGAEVKKPGASVKVSCKASGYTFTSYYMHWVRQAPGQGLEWMGVINPSGGSTSYAQKFQGRVTMTRDTSTSTVYMELSSLRSEDTAVYYCAREEAVAADLGVDVWGQGTTVTVSS VL: not shown |
| 12.8 | 1150 | 2.25 | no binding (tested: 100 nM) | 182 | 114 | 110 | 65.7 |  | 78.2 | 55.4 | 1010 | C-45 (antibody, V domains shown, human IgG1) VH: not shown VL: DIQMTQSPSSVSASVGDRVTITCRASQGISSWLAWYQQKPGKAPKLLIYAASSLQSGVPSRFSGSGSGTDFTLTISSLQPEDFATYYCQQAYSFPTFGGGTKVEIK |
| 9.69 | 1440 | 2.53 | no binding (tested: 100 nM) | 177 | 93.2 | 91.5 | 80.9 | 94.4 | 100 | 461 | 924 | C-1 (antibody, V domains shown, full-length human IgG1) VH: not shown VL: EIVLTQSPATLSLSPGERATLSCRASQSVSSYLAWYQQKPGQAPRLLIYDASNRATGIPARFSGSGSGTDFTLTISSLEPEDFAVYYCQQYYFWPLTFGGGTKVEIK |
| 23.6 | 1660 | 4.07 | no binding (tested: 100 nM) | 197 | 95.7 | 84 | 78.4 |  | 87.4 | 96.4 | 520 | C-62 (antibody, V domains shown, human IgG1) VH: not shown VL: EIVMTQSPATLSVSPGERATLSCRASQSVSSNLAWYQQKPGQAPRLLIYGASTRATGIPARFSGSGSGTEFTLTISSLQSEDFAVYYCQQFSNWPLTFGGGTKVEIK |
| 2.72 | 1840 | 0.409 | no binding (tested: 100 nM) | 203 | 11 | 5.6 | 19 | 55.3 | 32.2 | 213 | 952 | C-37 (antibody, V domains shown, human IgG1) VH: QLQLQESGPGLVKPSETLSLTCTVSGGSISSSSYYWGWIRQPPGKGLEWIGSISYSGSTYYNPSLKSRVTISVDTSKNQFSLKLSSVTAADTAVYYCAREHRAADAGSNVWGQGTMVTVSS VL: not shown |
| 2.62 | 1520 | 0.612 | no binding (tested: 100 nM) | 161 | 13.3 | 10.5 | 14.7 | 57.3 | 24.8 | 310 | 892 | C-44 (antibody, V domains shown, human IgG1) VH: QLQLQESGPGLVKPSETLSLTCTVSGGSISSSSYAWGWIRQPPGKGLEWIGSIYYSGSTYYNPSLKSRVTISVDTSKNQFSLKLSSVTAADTAVYYCAREGYVAAYGMDVWGQGTTVTVSS VL: DIQMTQSPSSLSASVGDRVTITCRASQSISSYLNWYQQKPGKAPKLLIYAASSLQSGVPSRFSGSGSGTDFTLTISSLQPEDFATYYCQQAYYPPWTFGGGTKVEIK |
| 5.33 | 1420 | 1.19 | no binding (tested: 100 nM) | 151 | 22.9 | 10.7 | 17 | 51 | 23.8 | 209 | 831 | C-67 (antibody, V domains shown, human IgG1) VH: QLQLQESGPGLVKPSETLSLTCTVSGGSISSSSYYWGWIRQPPGKGLEWIGSIYYSGSTYYNPSLKSRVTISVDTSKNQFSLKLSSVTAADTAVYYCAREVSGTRHGMDVWGQGTTVTVSS VL: not shown |
| 10.6 | 1470 | 1.86 | no binding (tested: 100 nM) | 76 | 19.7 | 12.1 | 17.8 | 35.2 | 24.2 | 210 | 663 | C-40 (antibody, V domains shown, human IgG1) VH: EVQLVESGGGLVQPGGSLRLSCAASGFTFSSYWMSWVRQAPGKGLEWVANIKQDGSEKYYVDSVKGRFTISRDNAKNSLYLQMNSLRAEDTAVYYCAREGGYVGHGMDVWGQGTTVTVSS VL: not shown |
| 9.97 | 2000 | 2.06 | no binding (tested: 100 nM) | 181 | 12.5 | 5.11 | 22.8 | 46.5 | 27.2 | 1210 | 802 | C-39 (antibody, V domains shown, human IgG1) VH: QLQLQESGPGLVKPSETLSLTCTVSGGSISSSSYYWGWIRQPPGKGLEWIGSIYYSGSTYYNPSLKSRVTISVDTSKNQFSLKLSSVTAADTAVYYCAREGVRGMDVWGQGTTVTVSS VL: EIVLTQSPGTLSLSPGERATLSCRASQSVSSSYLAWYQQKPGQAPRLLIYGASSRATGIPDRFSGSGSGTDFTLTISRLEPEDFAVYYCQQFAFLPPTFGGGTKVEIK |
| 15.6 | 1460 | 3.17 | no binding (tested: 100 nM) | 177 | 19.8 | 13.8 | 43.1 | 73.3 | 54.7 | 357 | 866 | C-5 (antibody, V domains shown, human IgG1) VH: not shown VL: EIVLTQSPGTLSLSPGERATLSCRASQSVSSSFLAWYQQKPGQAPRLLIYGASSRATGIPDRFSGSGSGTDFTLTISRLEPEDFAVYYCQQVSSFPPTFGGGTKVEIK |
| 4.37 | 1810 | 1.06 | no binding (tested: 100 nM) | 180 | 10.7 | 8.19 | 18.6 | 39.5 | 40.8 | 208 | 945 | C-41 (antibody, V domains shown, human IgG1) VH: QLQLQESGPGLVKPSETLSLTCTVSGGSISSSSYYWGWIRQPPGKGLEWIGSISYSGSTYYNPSLKSRVTISVDTSKNQFSLKLSSVTAADTAVYYCAREGGKGMDVWGQGTLVTVSS VL: EIVLTQSPGTLSLSPGERATLSCRASQSVSSSFLAWYQQKPGQAPRLLIYGASSRATGIPDRFSGSGSGTDFTLTISRLEPEDFAVYYCQQFGDLPTFGGGTKVEIK |
